Tests used:
Experiment in all cases: holdup assay
Parameters in all cases: key: below the threshold = too weak to quantify, mostly under pKd 3.1 to 4
Details in all cases: plain residues with an end cap or a label only (N-terminal biotin on a linker: ado-ado)
APBA2_1, Q99767 = target: T1, APBA2_1, Q99767
T1 sequence (Q99767 563-664, limits assumed, looked up): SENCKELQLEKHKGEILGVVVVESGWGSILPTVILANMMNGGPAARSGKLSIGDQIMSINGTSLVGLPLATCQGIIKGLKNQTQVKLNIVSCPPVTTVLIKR

ARHGEF12, Q9NZN5-2 = target: ARHGEF12, Q9NZN5-2
Sequence of ARHGEF12, Q9NZN5-2 (Q9NZN5 other isoform, or with tags, fused parts or gaps): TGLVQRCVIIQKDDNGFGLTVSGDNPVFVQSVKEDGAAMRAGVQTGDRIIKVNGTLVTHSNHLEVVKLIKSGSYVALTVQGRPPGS

CASK, O14936 = target: CASK, O14936
Sequence of CASK, O14936 (O14936 487-570): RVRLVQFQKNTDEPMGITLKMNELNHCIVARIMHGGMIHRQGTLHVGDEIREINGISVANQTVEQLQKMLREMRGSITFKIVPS

DLG3_1, Q92796 = target: T2, DLG3_1, Q92796
T2 sequence (Q92796 125-227, limits assumed, looked up): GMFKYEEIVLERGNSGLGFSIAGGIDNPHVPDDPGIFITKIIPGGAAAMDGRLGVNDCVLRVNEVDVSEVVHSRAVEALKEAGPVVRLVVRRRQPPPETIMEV

DLG3_2, Q92796 = target: T3, DLG3_2, Q92796
T3 sequence (Q92796 221-321, limits assumed, looked up): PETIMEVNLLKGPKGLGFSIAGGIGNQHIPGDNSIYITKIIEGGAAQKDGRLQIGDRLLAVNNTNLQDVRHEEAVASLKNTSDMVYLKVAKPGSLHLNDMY

DLG5_1, Q8TDM6 = target: DLG5_1, Q8TDM6
Sequence of DLG5_1, Q8TDM6 (Q8TDM6 617-713): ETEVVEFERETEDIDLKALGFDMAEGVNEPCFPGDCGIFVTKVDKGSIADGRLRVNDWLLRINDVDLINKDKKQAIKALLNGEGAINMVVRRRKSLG

FRMPD3, Q5JV73 = target: FRMPD3, Q5JV73
Sequence of FRMPD3, Q5JV73 (Q5JV73 12-100): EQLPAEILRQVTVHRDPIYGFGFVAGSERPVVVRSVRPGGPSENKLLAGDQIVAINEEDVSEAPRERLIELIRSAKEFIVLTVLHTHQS

GOPC, Q9HD26 = target: GOPC, Q9HD26
GRASP, Q7Z6J2 = target: GRASP, Q7Z6J2
Sequence of GRASP, Q7Z6J2 (Q7Z6J2 96-193): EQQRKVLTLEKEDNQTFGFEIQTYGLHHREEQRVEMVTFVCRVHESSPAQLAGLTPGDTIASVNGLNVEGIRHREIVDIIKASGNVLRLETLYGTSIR

GRID2IP_1, A4D2P6 = target: GRID2IP_1, A4D2P6
Sequence of GRID2IP_1, A4D2P6 (A4D2P6 1-87): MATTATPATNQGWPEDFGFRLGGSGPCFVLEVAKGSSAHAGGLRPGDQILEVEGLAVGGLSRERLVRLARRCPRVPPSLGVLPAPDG

IL16_4, Q14005 = target: IL16_4, Q14005
Sequence of IL16_4, Q14005 (Q14005 1229-1329): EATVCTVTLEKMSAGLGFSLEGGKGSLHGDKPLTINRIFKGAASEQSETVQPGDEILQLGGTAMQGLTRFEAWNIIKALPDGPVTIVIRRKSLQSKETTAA

LIMK2, P53671 = target: LIMK2, P53671
Sequence of LIMK2, P53671 (P53671 143-248): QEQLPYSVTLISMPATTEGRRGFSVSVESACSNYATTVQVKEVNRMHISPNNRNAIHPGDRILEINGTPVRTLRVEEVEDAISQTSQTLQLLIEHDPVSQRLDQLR

MAGI1_2, Q96QZ7 = target: MAGI1_2, Q96QZ7
Sequence of MAGI1_2, Q96QZ7 (Q96QZ7 456-580): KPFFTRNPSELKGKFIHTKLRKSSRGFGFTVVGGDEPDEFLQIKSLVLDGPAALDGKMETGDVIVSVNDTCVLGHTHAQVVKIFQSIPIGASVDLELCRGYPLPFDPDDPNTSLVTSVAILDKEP

MAST2, Q6P0Q8 = target: MAST2, Q6P0Q8
Sequence of MAST2, Q6P0Q8 (Q6P0Q8 1099-1202): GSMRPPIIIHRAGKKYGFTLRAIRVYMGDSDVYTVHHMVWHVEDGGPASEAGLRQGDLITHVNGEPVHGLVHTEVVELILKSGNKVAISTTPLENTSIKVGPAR

MPDZ_10, O75970 = target: T4, MPDZ_10, O75970
T4 sequence (O75970 1624-1722, limits assumed, looked up): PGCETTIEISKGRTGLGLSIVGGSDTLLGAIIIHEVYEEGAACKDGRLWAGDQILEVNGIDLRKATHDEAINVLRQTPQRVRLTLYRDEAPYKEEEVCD

NHERF3_1, Q5T2W1 = target: T5, NHERF3_1, Q5T2W1
T5 sequence (Q5T2W1 4-100, limits assumed, looked up): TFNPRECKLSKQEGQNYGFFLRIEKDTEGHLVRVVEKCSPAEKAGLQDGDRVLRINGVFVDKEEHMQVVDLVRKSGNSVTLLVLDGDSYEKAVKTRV

NHERF4_1, Q86UT5-2 = target: NHERF4_1, Q86UT5-2
Sequence of NHERF4_1, Q86UT5-2 (Q86UT5 other isoform, or with tags, fused parts or gaps): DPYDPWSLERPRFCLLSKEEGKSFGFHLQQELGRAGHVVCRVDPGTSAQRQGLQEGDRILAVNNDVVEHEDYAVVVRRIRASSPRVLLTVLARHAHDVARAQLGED

PDZRN4_1, Q6ZMN7 = target: PDZRN4_1, Q6ZMN7
Sequence of PDZRN4_1, Q6ZMN7 (Q6ZMN7 213-318): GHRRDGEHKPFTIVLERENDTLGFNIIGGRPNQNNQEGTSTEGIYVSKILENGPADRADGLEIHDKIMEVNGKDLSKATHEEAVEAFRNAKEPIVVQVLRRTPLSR

RHPN1, Q8TCX5 = target: T6, RHPN1, Q8TCX5
T6 sequence (Q8TCX5 508-602, limits assumed, looked up): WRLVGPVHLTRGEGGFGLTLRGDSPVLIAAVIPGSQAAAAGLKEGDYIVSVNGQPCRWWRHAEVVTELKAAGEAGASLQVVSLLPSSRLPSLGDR

SCRIB_1, Q14160 = target: SCRIB_1, Q14160
Sequence of SCRIB_1, Q14160 (Q14160 718-814): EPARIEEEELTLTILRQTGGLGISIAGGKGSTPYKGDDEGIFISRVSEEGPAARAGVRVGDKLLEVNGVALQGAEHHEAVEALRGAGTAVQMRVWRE

SHANK1, Q9Y566 = target: T7, SHANK1, Q9Y566
T7 sequence (Q9Y566 658-767, limits assumed, looked up): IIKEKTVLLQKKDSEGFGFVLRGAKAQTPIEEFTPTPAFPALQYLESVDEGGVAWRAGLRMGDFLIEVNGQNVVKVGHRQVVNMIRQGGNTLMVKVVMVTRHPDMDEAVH

SNTA1, Q13424 = target: T8, SNTA1, Q13424
T8 sequence (Q13424 82-180, limits assumed, looked up): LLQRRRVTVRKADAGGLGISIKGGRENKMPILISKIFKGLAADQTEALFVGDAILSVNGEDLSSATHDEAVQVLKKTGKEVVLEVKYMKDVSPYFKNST

SNTG1, Q9NSN8 = target: T9, SNTG1, Q9NSN8
T9 sequence (Q9NSN8 52-150, limits assumed, looked up): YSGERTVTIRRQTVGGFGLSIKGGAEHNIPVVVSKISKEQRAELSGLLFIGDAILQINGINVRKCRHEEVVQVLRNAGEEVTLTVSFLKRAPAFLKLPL

SYNJ2BP, P57105 = target: T10, SYNJ2BP, P57105
T10 sequence (P57105 8-110, limits assumed, looked up): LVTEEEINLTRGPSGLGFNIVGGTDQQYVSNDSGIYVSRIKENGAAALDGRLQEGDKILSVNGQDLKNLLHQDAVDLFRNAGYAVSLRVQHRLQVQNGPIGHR

TJP3_3, O95049 = target: T11, TJP3_3, O95049
T11 sequence (O95049 375-456, limits assumed, looked up): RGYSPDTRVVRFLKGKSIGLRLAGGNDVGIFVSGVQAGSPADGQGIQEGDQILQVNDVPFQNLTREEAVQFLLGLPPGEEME

TX1BP3, O14907 = target: T12, TX1BP3, O14907
T12 sequence (O14907 10-122, limits assumed, looked up): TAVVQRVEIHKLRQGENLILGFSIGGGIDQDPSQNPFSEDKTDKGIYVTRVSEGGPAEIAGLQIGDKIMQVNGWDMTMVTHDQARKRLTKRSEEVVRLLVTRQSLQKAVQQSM

B1: ITK, Q08881 (peptide)
chain: QLAEIAESGL
APBA2_1, Q99767
  pKd: 3.58
ARHGEF12, Q9NZN5-2
  pKd: below the threshold
CASK, O14936
  pKd: below the threshold
DLG3_1, Q92796
  pKd: 3.56
DLG3_2, Q92796
  pKd: below the threshold
DLG5_1, Q8TDM6
  pKd: 3.78
FRMPD3, Q5JV73
  pKd: below the threshold
GOPC, Q9HD26
  pKd: 3.73
GRASP, Q7Z6J2
  pKd: 3.69
GRID2IP_1, A4D2P6
  pKd: below the threshold
IL16_4, Q14005
  pKd: 3.8
LIMK2, P53671
  pKd: below the threshold
MAGI1_2, Q96QZ7
  pKd: below the threshold
MAST2, Q6P0Q8
  pKd: 5.28
MPDZ_10, O75970
  pKd: below the threshold
NHERF3_1, Q5T2W1
  pKd: 4.76
NHERF4_1, Q86UT5-2
  pKd: 3.91
PDZRN4_1, Q6ZMN7
  pKd: 3.91
RHPN1, Q8TCX5
  pKd: 3.83
SCRIB_1, Q14160
  pKd: 3.75
SHANK1, Q9Y566
  pKd: 3.76
SNTA1, Q13424
  pKd: 3.63
SNTG1, Q9NSN8
  pKd: 3.72
SYNJ2BP, P57105
  pKd: 3.84
TJP3_3, O95049
  pKd: below the threshold
TX1BP3, O14907
  pKd: below the threshold

B2: EZH1, Q92800 (peptide)
chain: VGIERETDVL
APBA2_1, Q99767
  pKd: below the threshold
ARHGEF12, Q9NZN5-2
  pKd: below the threshold
CASK, O14936
  pKd: below the threshold
DLG3_1, Q92796
  pKd: below the threshold
DLG3_2, Q92796
  pKd: 3.54
DLG5_1, Q8TDM6
  pKd: below the threshold
FRMPD3, Q5JV73
  pKd: below the threshold
GOPC, Q9HD26
  pKd: below the threshold
GRASP, Q7Z6J2
  pKd: 4.36
GRID2IP_1, A4D2P6
  pKd: below the threshold
IL16_4, Q14005
  pKd: 3.48
LIMK2, P53671
  pKd: below the threshold
MAGI1_2, Q96QZ7
  pKd: below the threshold
MAST2, Q6P0Q8
  pKd: 3.88
MPDZ_10, O75970
  pKd: below the threshold
NHERF3_1, Q5T2W1
  pKd: below the threshold
NHERF4_1, Q86UT5-2
  pKd: 3.8
PDZRN4_1, Q6ZMN7
  pKd: below the threshold
RHPN1, Q8TCX5
  pKd: below the threshold
SCRIB_1, Q14160
  pKd: below the threshold
SHANK1, Q9Y566
  pKd: below the threshold
SNTA1, Q13424
  pKd: 4.63
SNTG1, Q9NSN8
  pKd: below the threshold
SYNJ2BP, P57105
  pKd: below the threshold
TJP3_3, O95049
  pKd: below the threshold
TX1BP3, O14907
  pKd: below the threshold

B3: DUSP10, Q9Y6W6 (peptide)
chain: PKLMGVETVV
APBA2_1, Q99767
  pKd: below the threshold
ARHGEF12, Q9NZN5-2
  pKd: 3.74
CASK, O14936
  pKd: below the threshold
DLG3_1, Q92796
  pKd: 4.63
DLG3_2, Q92796
  pKd: 5.2
DLG5_1, Q8TDM6
  pKd: below the threshold
FRMPD3, Q5JV73
  pKd: below the threshold
GOPC, Q9HD26
  pKd: 4.25
GRASP, Q7Z6J2
  pKd: 3.78
GRID2IP_1, A4D2P6
  pKd: below the threshold
IL16_4, Q14005
  pKd: below the threshold
LIMK2, P53671
  pKd: below the threshold
MAGI1_2, Q96QZ7
  pKd: 4.14
MAST2, Q6P0Q8
  pKd: 5.17
MPDZ_10, O75970
  pKd: below the threshold
NHERF3_1, Q5T2W1
  pKd: below the threshold
NHERF4_1, Q86UT5-2
  pKd: below the threshold
PDZRN4_1, Q6ZMN7
  pKd: 3.7
RHPN1, Q8TCX5
  pKd: 4.42
SCRIB_1, Q14160
  pKd: 4.28
SHANK1, Q9Y566
  pKd: below the threshold
SNTA1, Q13424
  pKd: 5.13
SNTG1, Q9NSN8
  pKd: 4.47
SYNJ2BP, P57105
  pKd: 4.69
TJP3_3, O95049
  pKd: below the threshold
TX1BP3, O14907
  pKd: 4.15

B4: RRBP1, Q9P2E9 (peptide)
chain: GSSSKEGTSV
APBA2_1, Q99767
  pKd: below the threshold
ARHGEF12, Q9NZN5-2
  pKd: 3.91
CASK, O14936
  pKd: below the threshold
DLG3_1, Q92796
  pKd: 3.69
DLG3_2, Q92796
  pKd: 3.78
DLG5_1, Q8TDM6
  pKd: below the threshold
FRMPD3, Q5JV73
  pKd: below the threshold
GOPC, Q9HD26
  pKd: 3.62
GRASP, Q7Z6J2
  pKd: 3.49
GRID2IP_1, A4D2P6
  pKd: below the threshold
IL16_4, Q14005
  pKd: 3.7
LIMK2, P53671
  pKd: below the threshold
MAGI1_2, Q96QZ7
  pKd: 3.87
MAST2, Q6P0Q8
  pKd: 4.75
MPDZ_10, O75970
  pKd: 3.62
NHERF3_1, Q5T2W1
  pKd: below the threshold
NHERF4_1, Q86UT5-2
  pKd: 3.51
PDZRN4_1, Q6ZMN7
  pKd: 4.23
RHPN1, Q8TCX5
  pKd: 3.49
SCRIB_1, Q14160
  pKd: below the threshold
SHANK1, Q9Y566
  pKd: below the threshold
SNTA1, Q13424
  pKd: 3.8
SNTG1, Q9NSN8
  pKd: 3.63
SYNJ2BP, P57105
  pKd: 5.41
TJP3_3, O95049
  pKd: below the threshold
TX1BP3, O14907
  pKd: below the threshold

B5: APPL1, Q9UKG1 (peptide)
chain: EGGKKRESEA
APBA2_1, Q99767
  pKd: below the threshold
ARHGEF12, Q9NZN5-2
  pKd: below the threshold
CASK, O14936
  pKd: below the threshold
DLG3_1, Q92796
  pKd: below the threshold
DLG3_2, Q92796
  pKd: 4.22
DLG5_1, Q8TDM6
  pKd: below the threshold
FRMPD3, Q5JV73
  pKd: below the threshold
GOPC, Q9HD26
  pKd: below the threshold
GRASP, Q7Z6J2
  pKd: below the threshold
GRID2IP_1, A4D2P6
  pKd: below the threshold
IL16_4, Q14005
  pKd: below the threshold
LIMK2, P53671
  pKd: below the threshold
MAGI1_2, Q96QZ7
  pKd: below the threshold
MAST2, Q6P0Q8
  pKd: below the threshold
MPDZ_10, O75970
  pKd: below the threshold
NHERF3_1, Q5T2W1
  pKd: below the threshold
NHERF4_1, Q86UT5-2
  pKd: below the threshold
PDZRN4_1, Q6ZMN7
  pKd: below the threshold
RHPN1, Q8TCX5
  pKd: below the threshold
SCRIB_1, Q14160
  pKd: below the threshold
SHANK1, Q9Y566
  pKd: below the threshold
SNTA1, Q13424
  pKd: below the threshold
SNTG1, Q9NSN8
  pKd: below the threshold
SYNJ2BP, P57105
  pKd: below the threshold
TJP3_3, O95049
  pKd: below the threshold
TX1BP3, O14907
  pKd: below the threshold
